{"source": "patent US20050187147A1", "about": "(published 2005)", "binders": {"B1": {"name": "Ac-EYIFGSFK-PEG(13)-10Ca-PXL (peptide)", "peptide": "Ac-EYIFGSFK-{PEG(13)-10Ca-PXL}"}, "B2": {"name": "Pv-YIFGSFR-PEG(13)-10Ca-PXL (peptide)", "peptide": "Piv-YIFGSFR-{PEG(13)-10Ca-PXL}"}, "B3": {"name": "Ac-EYIyGSFK-PEG(13)-10Ca-PXL (peptide)", "peptide": "Ac-EYI[dY]GSFK-{PEG(13)-10Ca-PXL}"}, "B4": {"name": "CBz-YIYGSFK(CBz)-ALK(6)-10Es-PXL (peptide)", "peptide": "Cbz-YIYGSFK(Cbz)-{ALK(6)-10Es-PXL}", "modifications": "reading uncertain"}, "B5": {"name": "Ac-E(Bzl)YIYGSFK(CBz)-PEG(13)-10Ca-PXL (peptide)", "peptide": "Ac-E(OBn)YIYGSFK(Cbz)-{PEG(13)-10Ca-PXL}"}}, "note": "Square brackets hold non-standard residues; d marks the D form. Primed or numbered codes have the meaning given here. * marks the point of attachment. 10Ca = carbamate linkage conjugating the peptide-PEG to paclitaxel at C10; ALK(6) = not defined here; 10Es = not defined here; Cbz = O=C(OCc1ccccc1)*; PEG(13) = PEG13 linker; Piv = CC(C)(C)C(=O)*; OBn = c1ccc(CO*)cc1; PXL = paclitaxel", "data": [{"biological_target": "Human Src kinase (Upstate #14-326) (human, UniProt P12931 1-536)", "test": "cell-based or functional assay", "values": [{"binder": "B1", "Average src kinase activity": "0 % of parent peptide activity"}, {"binder": "B2", "Average src kinase activity": "0 % of parent peptide activity"}, {"binder": "B3", "Average src kinase activity": "0 % of parent peptide activity"}, {"binder": "B4", "Average src kinase activity": "0 % of parent peptide activity"}, {"binder": "B5", "Average src kinase activity": "0 % of parent peptide activity"}]}]}
